Assays:
[1] = molecular target: T1, carnitine monooxygenase oxygenase component CntA (Acinetobacter baumannii, UniProt D0C9N6); assay: MBTH aldehyde formation assay and L-carnitine depletion assay (specific activity); format: biochemical
T1 construct: CntA after on-column cleavage of GST tag; with CntB (reductase)

[2] = molecular target: T2, malic semialdehyde dehydrogenase (MSA-DH) (Acinetobacter baumannii, UniProt D0C9N7); assay: MSA depletion (MBTH) and NADH formation assays with […] NAD+; format: biochemical
T2 construct: gene HMPREF0010_01350; N-terminal His-thioredoxin fusion, tetramer
T2 sequence (D0C9N7 1-483): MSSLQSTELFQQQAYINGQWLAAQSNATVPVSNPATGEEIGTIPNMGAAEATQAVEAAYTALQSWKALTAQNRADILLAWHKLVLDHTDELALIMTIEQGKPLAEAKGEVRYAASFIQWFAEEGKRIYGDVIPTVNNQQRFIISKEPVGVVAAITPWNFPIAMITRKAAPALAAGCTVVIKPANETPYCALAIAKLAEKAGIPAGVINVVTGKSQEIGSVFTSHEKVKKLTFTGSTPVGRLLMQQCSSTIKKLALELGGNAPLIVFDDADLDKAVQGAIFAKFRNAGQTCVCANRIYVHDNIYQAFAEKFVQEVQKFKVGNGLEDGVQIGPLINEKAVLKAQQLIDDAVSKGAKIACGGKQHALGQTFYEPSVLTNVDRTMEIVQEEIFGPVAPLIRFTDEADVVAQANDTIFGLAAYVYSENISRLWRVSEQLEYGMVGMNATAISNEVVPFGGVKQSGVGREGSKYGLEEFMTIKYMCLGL

[3] = molecular target: T3, D-malate dehydrogenase (MDH) (Acinetobacter baumannii, UniProt A0ABX6CCN1); assay: spectroscopic NADH formation assay ([…] nm) with D-malate, varied inhibitor concentrations; format: biochemical
T3 construct: gene dmlA; N-terminal His-tag fusion, tetramer
T3 sequence (A0ABX6CCN1 1-370): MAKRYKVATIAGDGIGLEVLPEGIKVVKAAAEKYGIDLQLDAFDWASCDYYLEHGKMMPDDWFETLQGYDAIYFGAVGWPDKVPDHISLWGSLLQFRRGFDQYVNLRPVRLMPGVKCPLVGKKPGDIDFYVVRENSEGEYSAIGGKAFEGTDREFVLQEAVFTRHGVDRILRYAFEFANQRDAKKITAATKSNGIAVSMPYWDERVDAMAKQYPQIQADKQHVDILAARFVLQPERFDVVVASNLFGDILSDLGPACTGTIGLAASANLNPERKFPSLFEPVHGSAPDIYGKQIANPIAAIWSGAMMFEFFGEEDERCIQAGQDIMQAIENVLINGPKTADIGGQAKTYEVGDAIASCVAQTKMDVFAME

[4] = molecular target: T1, carnitine monooxygenase oxygenase component CntA; assay: MBTH aldehyde formation assay (specific activity); format: biochemical
[5] = molecular target: D-malate dehydrogenase (MDH) from A. baumannii, N-terminal His-tag fusion (Acinetobacter baumannii ATCC 19606); assay: mass photometry; Refeyn TwoMP, 25 nM protein in PBS, 60 s movies, calibrated against NativeMark standard
[6] = molecular target: malic semialdehyde dehydrogenase (MSA-DH) from A. baumannii, N-terminal His-thioredoxin fusion (Acinetobacter baumannii ATCC 19606); assay: crystal structure; X-ray, 2.6 A, space group P212121, 12 chains (three tetramers) in the asymmetric unit; protein at 40 mg/mL supplemented with 7 mM D-malate
[7] = molecular target: malic semialdehyde dehydrogenase (MSA-DH) from A. baumannii, N-terminal His-thioredoxin fusion (Acinetobacter baumannii ATCC 19606); assay: SEC; analytical size exclusion chromatography, Superdex 200 increase 5/150 GL, 20 mM HEPES-NaOH pH 7.5, 150 mM NaCl, 0.45 mL/min, 50 uL of 3 mg/mL protein injected, calibrated with protein standards
[8] = molecular target: malic semialdehyde dehydrogenase (MSA-DH) from A. baumannii, N-terminal His-thioredoxin fusion (Acinetobacter baumannii ATCC 19606); assay: mass photometry; Refeyn TwoMP, 25 nM protein in PBS, 60 s movies, calibrated against NativeMark standard
purified protein [9] = substrate: O=C[C@H](O)CC(=O)O; assay: purified protein; format: biochemical, Acinetobacter baumannii; conditions: NAD+ or NADP+ proposed from model: Arg166, Arg284, Ser447 bind the carboxylate; catalytic Cys290 (covalent hemithioacetal intermediate) and Glu256
purified protein [10] = substrate: O=C(O)C[C@@H](O)C(=O)O; assay: purified protein; format: biochemical, Acinetobacter baumannii; conditions: NAD+; Mg2+ or Mn2+

In the case of `C[N+](C)(C)C[C@H](O)CC(=O)[O-]` [L-carnitine], the “MBTH aldehyde formation assay and L-carnitine depletion assay (specific activity)” value [1] is reported as 2.8 ± 0.2 µmol/min/mg.

With `NC(=O)c1ccc[n+]([C@@H]2O[C@H](COP(=O)([O-])OP(=O)(O)OC[C@H]3O[C@@H](n4cnc5c(N)ncnc54)[C@H](O)[C@@H]3O)[C@@H](O)[C@H]2O)c1` [NAD^+] the “MSA depletion (MBTH) and NADH formation assays with 2 mM NAD+” value [2] was “MSA-DH can use NAD^+ or NADP^+ as a cofactor for the oxidation of the MSA substrate”.

With `O=C(O)C(O)C(O)C(=O)O` (stereo not drawn) [meso-tartrate] the Ki [3] was 320 ± 80 µM.

`C[N+](C)(C)CCCC(=O)[O-]` [γ-butyrobetaine] was tested, and the “MBTH aldehyde formation assay (specific activity)” value [4] was 2.1 ± 0.2 µmol/min/mg.

For “D-malate dehydrogenase (MDH) from A. baumannii, N-terminal His-tag fusion (enzyme)”, the stoichiometry N [5] was 4.

“malic semialdehyde dehydrogenase (MSA-DH) from A. baumannii, N-terminal His-thioredoxin fusion (enzyme)” showed a stoichiometry N [6] of 4, a stoichiometry N [7] of 4 and a stoichiometry N [8] of 4.

B1: malic semialdehyde dehydrogenase (MSA-DH) (Acinetobacter baumannii ATCC 19606 = CIP 70.34 = JCM 6841) (protein)
chain: T2 sequence (D0C9N7 1-483)
notes: N-terminal His-thioredoxin fusion, tetramer
B1 showed a Km (purified protein [9]) of 2600 ± 140 µM.

B2: D-malate dehydrogenase (MDH) (Acinetobacter baumannii ATCC 19606 = CIP 70.34 = JCM 6841) (protein)
chain: T3 sequence (A0ABX6CCN1 1-370)
notes: N-terminal His-tag fusion, tetramer
In the case of B2, the Km (purified protein [10]) is reported as 2100 ± 200 µM.

— article PMC11353897, “Biochemical and structural elucidation of the L-carnitine degradation pathway of the human pathogen Acinetobacter baumannii” (Frontiers in Microbiology, 2024)
